The values below come from PMC3919264, “The crystal structure and biochemical characterization of Kif15: a bifunctional molecular motor involved in bipolar spindle formation and neuronal development” (Acta Crystallographica Section D: Biological Crystallography, 2013).

This assay deals with taxol-polymerized microtubules from bovine brain tubulin (bovine (purified from bovine brain), UniProt Q6B856 1-445). In words: cell-based or functional assay.

B1: Homo sapiens Kif15 motor domain with cover strand and neck linker (Kif15 1-375) (domain or fragment, human, UniProt Q9NS87 1-375, looked up)
chain: MAPGCKTELRSVTNGQSNQPSNEGDAIKVFVRIRPPAERSGSADGEQNLCLSVLSSTSLRLHSNPEPKTFTFDHVADVDTTQESVFATVAKSIVESCMSGYNGTIFAYGQTGSGKTFTMMGPSESDNFSHNLRGVIPRSFEYLFSLIDREKEKAGAGKSFLCKCSFIEIYNEQIYDLLDSASAGLYLREHIKKGVFVVGAVEQVVTSAAEAYQVLSGGWRNRRVASTSMNRESSRSHAVFTITIESMEKSNEIVNIRTSLLNLVDLAGSERQKDTHAEGMRLKEAGNINRSLSCLGQVITALVDVGNGKQRHVCYRDSKLTFLLRDSLGGNAKTAIIANVHPGSRCFGETLSTLNFAQRAKLIKNKAVVNEDTQG
Take B1: the “MT activation of Mant-ADP release, stopped flow, 25°C, various MT concentrations with chasing Mg2+-ATP (MTs here from pig brain tubulin; preliminary data)” value is around 1000 fold.
